Results from patent publication US9156883B2, “Binding molecules for human factor VIII and factor VIII-like proteins” (DYAX CORP., priority 1999, dated 2015).
No end group written: not given here.

The substances below were run against T1, REFACTO® (factor VIII-like polypeptide, amino acids 1-743 and 1638 through 2332 of human factor VIII) (Homo sapiens, UniProt P00451) (assay: Phage ELISA of third-round isolates for binding to the factor VIII target). Conditions: TN7 library phage isolates; HRP anti-M13, TMB, absorbance at OD630.
T1 construct: amino acids 1-743 and 1638 through 2332 of human factor VIII; purchased Genetics Institute, Inc. (Cambridge, Mass.)
T1 sequence (P00451 20-762): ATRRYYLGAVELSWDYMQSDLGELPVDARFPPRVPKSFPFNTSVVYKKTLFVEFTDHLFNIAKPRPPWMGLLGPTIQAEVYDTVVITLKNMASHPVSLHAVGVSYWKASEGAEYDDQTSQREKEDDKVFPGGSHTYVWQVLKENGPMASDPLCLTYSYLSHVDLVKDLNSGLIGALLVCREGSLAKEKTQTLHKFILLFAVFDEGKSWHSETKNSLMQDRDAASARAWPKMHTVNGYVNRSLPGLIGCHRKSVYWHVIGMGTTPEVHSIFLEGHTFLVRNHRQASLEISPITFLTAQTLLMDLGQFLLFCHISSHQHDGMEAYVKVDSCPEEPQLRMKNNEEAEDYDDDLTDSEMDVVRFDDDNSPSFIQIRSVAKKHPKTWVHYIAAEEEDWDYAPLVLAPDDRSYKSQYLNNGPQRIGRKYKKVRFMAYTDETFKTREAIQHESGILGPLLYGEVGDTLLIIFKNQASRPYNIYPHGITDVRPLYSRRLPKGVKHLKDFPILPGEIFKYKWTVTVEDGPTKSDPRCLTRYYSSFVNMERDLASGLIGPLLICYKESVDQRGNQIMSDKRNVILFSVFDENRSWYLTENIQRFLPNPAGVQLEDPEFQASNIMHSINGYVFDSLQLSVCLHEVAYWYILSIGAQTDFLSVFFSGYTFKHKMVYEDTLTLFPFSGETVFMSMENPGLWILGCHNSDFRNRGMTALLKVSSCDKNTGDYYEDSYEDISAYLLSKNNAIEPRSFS
T1 sequence (P00451 1657-2351): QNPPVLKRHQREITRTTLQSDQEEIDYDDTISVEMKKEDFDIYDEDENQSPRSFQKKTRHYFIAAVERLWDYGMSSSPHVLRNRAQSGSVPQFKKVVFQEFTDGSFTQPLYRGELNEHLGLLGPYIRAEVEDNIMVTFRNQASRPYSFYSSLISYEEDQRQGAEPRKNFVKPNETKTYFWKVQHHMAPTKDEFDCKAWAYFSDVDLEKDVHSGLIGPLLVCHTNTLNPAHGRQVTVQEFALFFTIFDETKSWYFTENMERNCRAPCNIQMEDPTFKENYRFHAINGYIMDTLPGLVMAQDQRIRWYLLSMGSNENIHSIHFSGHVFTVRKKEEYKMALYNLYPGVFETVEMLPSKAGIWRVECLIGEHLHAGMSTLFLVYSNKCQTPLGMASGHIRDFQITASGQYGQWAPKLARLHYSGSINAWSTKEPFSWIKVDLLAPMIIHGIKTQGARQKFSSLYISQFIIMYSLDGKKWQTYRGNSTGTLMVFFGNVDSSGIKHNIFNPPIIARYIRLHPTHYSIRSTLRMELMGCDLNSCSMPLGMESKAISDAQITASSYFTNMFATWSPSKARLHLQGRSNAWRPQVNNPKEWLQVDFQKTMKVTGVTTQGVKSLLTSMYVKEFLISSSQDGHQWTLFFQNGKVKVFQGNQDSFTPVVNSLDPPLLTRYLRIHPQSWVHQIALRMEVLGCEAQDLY
Source text: The techniques described above were employed to isolate high affinity binding molecules for ligands for recombinantly produced factor VIII-like polypeptide consisting of two segments of human factor VIII, i.e., amino acids 1-743 and 1638 through 2332 of human factor VIII, as described in U.S. Pat. No. 5,661,008 (Almstedt et al.), obtained under the commercial designation of REFACTO® from Genetics Institute, Inc. (Cambridge, Mass.). The REFACTO® target was provided at a concentration of about 530 μg/ml (7800 IU/ml) in 19.4 mM His, 300 mM NaCl, 3.4 mM CaCl2 and 0.1% Tween 80, pH 7.0.
Three libraries, designated TN7 (5×10^9 amino acid sequence diversity), TN8 (6×10^9 amino acid sequence diversity), and TN9 (5×10^9 amino acid sequence diversity), were constructed for expression of diversified polypeptides on M13 phage. Each library was screened for binders to purified REFACTO®. Each of the libraries was constructed to display a microprotein based on an 11- or 12-amino acid template. The TN7 library utilized a template sequence of Xaa-Xaa-Cys-Xaa-Xaa-Xaa-Xaa-Xaa-Cys-Xaa-Xaa; the TN8 library utilized a template sequence of Xaa-Xaa-Cys-Xaa-Xaa-Xaa-Xaa-Xaa-Xaa-Cys-Xaa-Xaa; the TN9 library utilized a template sequence of Xaa-Cys-Xaa-Xaa-Xaa-Xaa-Xaa-Xaa-Xaa-Cys-Xaa.
(§1) Three rounds of screenings were carried out for each library. At the conclusion of the third round of screening eluted phage were propagated, and individual isolates from each library (96 per elution condition) were selected randomly and tested by standard ELISA techniques for binding to the factor VIII target. Bound phage were detected with HRP conjugated anti-M13 polyclonal antibody (Pharmacia). TMB Peroxidase substrate was used for HRP in the ELISA detection mechanism. TMB substrate produces a blue color after peroxidase digestion. The color is quantitated by absorbance at OD630. Phage isolates that provided a significant signal (OD630>0.25) above background were considered positive clones.
Sequence data from the phage isolates were grouped by library and sorted according to the degree of similarity. The frequency at which any given sequence was obtained was noted since this indicates selection for a specific binder.

| Substance | ELISA signal |
| --- | --- |
| A06 (HSCGSWLFPCFA; Selected Phage Display Sequence) | 0.5 |
| A08 (FGCSWLFPCPF; Selected Phage Display Sequence) | 0.4 |
| A09 (FHCIGVWFCLH; Selected Phage Display Sequence) | 0.1 |
| C5/G10 (RLCSWVSPCSA; Selected Phage Display Sequence) | 0.5 |
| D03 (PHCNWLFPCSL; Selected Phage Display Sequence) | 0.2 |
| D04 (RLCSWISPCSA; Selected Phage Display Sequence) | 0.3 |

Same assay, conditions: TN8 library phage isolates; HRP anti-M13, TMB, absorbance at OD630

| Substance | ELISA signal |
| --- | --- |
| 05 (RGCGSWLRPCLD; Selected Phage Display Sequence) [compound 05] | 0.2 |
| 07 (HACGSWFRPCHA; Selected Phage Display Sequence) [compound 07] | 0.4 |
| 08 (HPCGAWLRPCYN; Selected Phage Display Sequence) [compound 08] | 1.0 |
| 10 (HPCGSWLRPCLH; Selected Phage Display Sequence) [compound 10] | 1.0 |
| 11/G10 (HRCGSWLHPCLA; Selected Phage Display Sequence) | 0.3 |

Same assay, conditions: TN9 library phage isolates; HRP anti-M13, TMB, absorbance at OD630

| Substance | ELISA signal |
| --- | --- |
| 03 (FCWVFNFSHCS; Selected Phage Display Sequence) [compound 03] | 1.1 |
| 06 (FCWVFPFHHCF; Selected Phage Display Sequence) [compound 06] | 0.3 |
| 09 (FCWVFPFQHCA; Selected Phage Display Sequence) [compound 09] | 1.1 |
| 11 (FCHVFPFLHCD; Selected Phage Display Sequence) [compound 11] | 0.2 |

What follows are substances tested against T2, factor VIII target (Homo sapiens, UniProt P00451) (assay: Phage ELISA of high scoring isolates from rounds 2 and 3, with versus without target). Conditions: phage isolates from rounds 2 and 3.
T2 construct: amino acids 1-743 and 1638 through 2332 of human factor VIII; purchased Genetics Institute, Inc. (Cambridge, Mass.)
T2 sequence (P00451 20-762): T1 sequence (P00451 20-762)
T2 sequence (P00451 1657-2351): T1 sequence (P00451 1657-2351)
Assay type: binding
Description: During analysis of the specific polypeptides of the invention, three libraries were isolated and screened. […] These libraries were designated TN7/1, TN8/6 anf TN9/1. In addition, important consensus sequences were determined.
as §1, with “clones. […]” for “clones.”

| Substance | R, ratio of the ELISA score with target present to the ELISA score without target |
| --- | --- |
| FCHVFNFVHCS (cysteine pairing not given here) [TN9 isolate 01] | 8 |
| FCWVFAFDHCH (Selected Phage Display Sequence) [Phe-Cys-Trp-Val-Phe-Ala-Phe-Asp-His-Cys-His] | 24 |
| FCWVFNFSHCS (cysteine pairing not given here) [TN9 isolate 03] | 24 |
| FCWVFNWVHCD (Selected Phage Display Sequence) [Phe-Cys-Trp-Val-Phe-Asn-Trp-Val-His-Cys-Asp] | 14 |
| FCWVFPFHHCF (cysteine pairing not given here) [TN9 isolate 06] | 6 |
| FCWVFPFNHCD (cysteine pairing not given here) [TN9 isolate 02] | 8 |
| FCWVFPFNHCS (cysteine pairing not given here) [TN9 isolate 12] | 18 |
| FCWVFPFQHCA (cysteine pairing not given here) [TN9 isolate 09] | 24 |
| FCWVFQFRHCH (Selected Phage Display Sequence) [Phe-Cys-Trp-Val-Phe-Q-Phe-Arg-His-Cys-His] | 8 |
| FGCSWLFPCPF (cysteine pairing not given here) [TN7 isolate A08] | 8 |
| HACGSWFRPCHA (cysteine pairing not given here) [TN8 isolate 07] | 6 |
| HLCFAWFRPCDA (cysteine pairing not given here) [TN8 isolate 12] | 8 |
| HLCGAWFRPCDA (cysteine pairing not given here) [TN8 isolate 02] | 6 |
| HPCGAWLRPCYN (cysteine pairing not given here) [TN8 isolate 08] | 20 |
| HPCGSWFNPCAH (cysteine pairing not given here) [TN8 isolate 02] | 8 |
| HPCGSWFRPCFH (cysteine pairing not given here) [TN8 isolate 02] | 16 |
| HPCGSWLHPCAA (cysteine pairing not given here) [TN8 isolate 04] | 6 |
| HPCGSWLRPCLH (cysteine pairing not given here) [TN8 isolate 10] | 16 |
| HRCGSWLHPCLA (cysteine pairing not given here) [TN8 isolate 11/G10] | 6 |
| HSCGSWLFPCFA (cysteine pairing not given here) [TN7 isolate A06] | 10 |
| RLCSWISPCSA (cysteine pairing not given here) [TN7 isolate D04] | 6 |
| RLCSWVSPCSA (cysteine pairing not given here) [TN7 isolate C5/G10] | 10 |
